Assay [1] concerns the target T1, human ANGPTL8 (human, UniProt Q6UXH0 22-198).
T1 construct: also called hANGPTL8; Angiopoietin-like protein 8
T1 sequence: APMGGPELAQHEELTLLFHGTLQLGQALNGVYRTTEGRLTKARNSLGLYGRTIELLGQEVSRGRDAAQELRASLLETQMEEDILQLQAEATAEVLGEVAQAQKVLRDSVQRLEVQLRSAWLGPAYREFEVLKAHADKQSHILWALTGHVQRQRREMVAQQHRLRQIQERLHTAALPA
The experiment in a line: sandwich ELISA on ex vivo serum samples. As to the method: (§1) Proteins and mAbs stored at −80° C. were thawed and kept on ice, as they were needed. The wells of the ELISA plate were coated with capture mAb, at a concentration of 4 μg/mL in PBS, and a volume of 100 μL/well. The plate was covered with a plate sealer, and stored at 4° C. overnight (approximately 18 hours). The wells of the plate were then washed with 350 μL/well wash buffer (0.1% Tween-20 in PBS), for a total of 3 washes, using an automated plate washer. Excess wash remnants were removed by inverting and tapping the plate against clean paper towels. Blocking buffer (1% Fraction V BSA in PBS) was added at 300 μL/well. The plate was covered with a plate sealer, and placed on a plate shaker at room temperature, shaking at 300 rpm for a minimum of 1 hour.
(§2) After the blocking period, the wells of the ELISA plate were washed again, and excess wash remnants were removed, as previously described. The standards and the diluted samples were added to the plate in duplicate, with 100 μL/well. The plate was covered with a plate sealer and placed on a plate shaker at room temperature, shaking at 500 rpm for 2 hours. The wells of the ELISA plate were washed again, and excess wash remnants were removed, as previously described. The detection mAb was added at a concentration of 400 ng/mL in assay diluent (1% Fraction V BSA/0.1% Tween-20 in PBS), with 150 μL/well. […]

Assay [2] has as its target T2, human ANGPTL8 dimer protein with mouse Fc tag (human, UniProt Q6UXH0 22-198).
T2 construct: also called hANGPTL8.mFc; dimer form of human ANGPTL8; not shown: mouse Fc tag
T2 sequence: T1 sequence
The experiment in a line: sandwich ELISA, capture mAb, dimer (mFc) standard. As to the method: as §1, §2
In general terms: ELISA stands for enzyme-linked immunosorbent assay.

The target of assay [3] is T1, human ANGPTL8. In words: immunoprecipitation from cell conditioned media, Western blot. As to the method: The selection process involved performing a series of immunoprecipitations (IPs), in which each mAb was incubated with cell conditioned media (CM) containing the human ANGPTL8 protein. A resin that identifies human IgG4 was then applied to the mAb/CM mixtures. The resin beads targeted the mAbs, binding the mAb-human ANGPTL8 complex. A series of Western blots probing for human ANGPTL8 were run on the various fractions of the IPs, and anti-human ANGPTL8 mAbs were selected based on high human ANGPTL8 expression in the IP fractions, with low human ANGPTL8 expression in the unbound fractions.

In assay [4] the target is T2, human ANGPTL8 dimer protein with mouse …. In words: sandwich ELISA, biotinylated detection mAb, dimer (mFc) standard. The protocol:
as §1, §2

B1: H4H15361P2 (antibody, human IgG4, V domains shown)
VH: EVQLVESGGGLVQPGRSLRLSCTASGFSFGDNAMGWVRQAPGKGLEWVSFIRRKASGGTTEYAASVKGRFTISRDDSKSIAYLQMNSLKTEDTGVYYCTRGGAVYGYWGQGTLVTVSS
VL: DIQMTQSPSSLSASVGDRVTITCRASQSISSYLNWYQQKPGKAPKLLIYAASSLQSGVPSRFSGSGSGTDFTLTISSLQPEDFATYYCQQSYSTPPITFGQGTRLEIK
notes: also called anti-human C19orf80 (ANGPTL8) (H4H15361P2); biotinylated-H4H15361P2
For B1, the binding result (with human ANGPTL8 [1]; in assay [2]) was “binds” in each case.

B2: H4H15341P (antibody, human IgG4, V domains shown)
VH: EVQLVESGGGLVQPGGSLRLSCAASGFTFNNHEMNWVRQAPGKGLEWVSYISSSGNTVTYADFLKGRFTISRDNAKNSLFLQMNSLRDEDTAVYYCARDHLSGTSPLSYWGQGTLVTVSS
VL: DIQMTQSPSSLSASVGDRVTITCQASQDINNYLNWFQQKPGKAPKLLIFDASNLETGVPSRFSGSGSGTDFTFTISSLQPEDIATYFCQQYENLPYTFGQGTKLEIK
notes: also called biotinylated-H4H15341P
For the molecule B2, the binding result with human ANGPTL8 [3] is “binds”.

B3: H4H15347P (antibody, human IgG4, V domains shown)
VH: EVQLVESGGGLVQPGGSLRLSCAASGFTFRNYAMNWARQAPGKGLEWVSGITGSGGATYYADSVKGRFTISRENSKNTLFLQMDTLRAEDTAVYYCAKDRRYFPTSGGPQWGQGTLVTVSS
VL: DIVMTQSPLSLPVTPGEPASISCRSSRSLLHSSGYNYLDWYLQKPGQSPQLLLYLGSNRASGVPDRFSGSGSGTYFTLKISRVDAEDVGVYYCMQALQTPWTFGQGTKVEIK
notes: Capture mAb of the final ELISA; also called anti-human C19orf80 (ANGPTL8) (H4H15347P); biotinylated-H4H15347P
Consider B3, for which the binding result (with human ANGPTL8 [1]; in assay [2]) was “binds” in each case.

B4: H4H15318P (antibody, V domains shown)
VH: QVQLVESGGGVVQPGRSLRLSCTASGFTFGNFGIHWVRQAPGKGLEWVAVISYDGTDKFYADPVKGRFIISRDNSMNILYLQMNSLRAEDTAVYYCAKDGEMELRGYYYYYGMDVWGQGTTVTVSS
VL: DIQMTQSPSSVSASVGDRVTITCRASQGINTWLAWYQQKPGTAPKLLIFAASSLESGVPSRFSGSGFGTDFTLTISSLQSEDLATYFCQQVHSPPYTFGQGTKLEIK
notes: Used unlabelled in the immunoprecipitation and as capture mAb, and biotinylated as detection mAb in the sandwich ELISA; also called biotin-H4H15318P; biotinylated anti-human C19orf80 (ANGPTL8) (biotin-H4H15318P)
For the molecule B4, the binding result (in the assay with human ANGPTL8 [3]; in assay [4]) was “binds” throughout.
